According to patent US7378498B2, “Protein encoded by a nucleic acid” (The Johns Hopkins University School of Medicine, priority 1998, dated 2008):

B1: truncated form of Homer: 186 amino acid amino-terminal fragment of Homer 1b, lacks the coiled-coil domain, expressed by transfection (protein)
chain: MGEQPIFSTRAHVFQIDPNTKKNWVPTSKHAVTVSYFYDSTRNVYRIISLDGSKAIINSTITPNMTFTKTSQKFGQWADSRANTVYGLGFSSEHHLSKFAEKFQEFKEAARLAKEKSQEKMELTSTPSQESAGGDLQSPLTPESINGTDDERTPDVTQNSEPRAEPTQNALPFPHSSAISKHWEAE
modifications: left off: small tags and cut ends
notes: 186 amino acid amino-terminal fragment of Homer 1b, lacks the coiled-coil domain, expressed by transfection
B2: Homer 1b: full-length Homer 1b expressed from pRK5 plasmid in Purkinje cells (protein, listed as Homo sapiens)
chain: MGEQPIFSTRAHVFQIDPNTKKNWVPTSKHAVTVSYFYDSTRNVYRIISLDGSKAIINSTITPNMTFTKTSQKFGQWADSRANTVYGLGFSSEHHLSKFAEKFQEFKEAARLAKEKSQEKMELTSTPSQESAGGDLQSPLTPESINGTDDERTPDVTQNSEPRAEPTQNALPFSHSSAISKHWEAELATLKGNNAKLTAALLESTANVKQWKQQLAAYQEEAERLHKRVTELECVSSQANAVHTHKTELNQTIQELEETLKLKEEEIERLKQEIDNARELQEQRDSLTQKLQEVEIRNKDLEGQLSDLEQRLEKSQNEQEAFRNNLKTLLEILDGKIFELTELRDNLAKLLECS

Experiments:
[1] = tested on: mGluR-evoked Ca^+2 responses in Purkinje cells; test: Fura-2 ratio imaging of quisqualate-evoked Ca2+ mobilization in transfected cerebellar Purkinje cells; assay type: cell-based, mouse; settings: for mGluR-evoked Ca^+2 response amplitude / mGluR-evoked Ca^+2 response latency: mean±SEM, transfected Purkinje cells, quisqualate micropressure pulse, Ca^+2-free external saline
Excerpt: The truncated Homer protein used lacks the coiled-coil domain and is unable to form a bridge linking the mGluR at the cell surface with intracellular inositol trisphosphate receptors. The truncated form of Homer protein resembled Homer 1a with the exception of 11 residues at the carboxy-terminal. This form of Homer results in enhanced expression of Homer protein as compared with transfection of Homer 1a in heterologous cells. The Homer protein was introduced into Purkinje cells in primary cerebellar cultures and glutamate induced effects on calcium mobilization was measured.
Embryonic mouse cerebellar cultures were prepared and maintained according to the method of Schilling et al. (Schilling et al., Neuron 7:891 1991). At 4-5 DIV, cultures were transfected with plasmids coding for E-GFP (Clontech) and either full-length Homer 1b or an IEG form of Homer 1. The IEG form of Homer 1 was a 186 amino acid amino-terminal fragment of Homer 1b. Plasmids were purified by cesium banding. Three combinations of the plasmids were transfected. Group I (control), 20 Tg of E-GFP and 40 Tg of pRK5 vector; group II, 20 Tg of E-GFP and 40 Tg of pRK5 Homer 1 IEG; group III: 20 Tg of E-GFP and 40 Tg of pRK5 Homer 1b. Plasmid DNA was mixed with gold particles (0.6 micron), and coated onto plastic tubing. DNA was then ballistically transfected into cells according to the manufacturer's protocol (Helios Gene Gun System, BIO-RAD). After transfection, cultures were returned to the incubator and maintained for an additional […] for a total of 7-8 DIV at the time of use for imaging experiments.
Patch electrodes were attached to the somata of GFP-expressing Purkinje cells and a holding potential of −60 mV was applied. Micropressure electrodes (1 Tm tip diameter) were filled with quisqualate (100 Tm in external saline) and were positioned ˜20 Tm away from large-caliber dendrites. Test pulses were delivered using positive pressure (6 psi, 1 sec). Cells were bathed in a solution that contained (in mM) NaCl (140), KCl (5), EGTA (0.2), MgCl2 (0.8), HEPES (10), glucose (10), tetrodotoxin (0.005), and picrotoxin (0.1), adjusted to pH 7.35 with NaOH, which flowed at a rate of 0.5 ml/m The recording electrode contained CsCl (135), HEPES (10), fura-2 K5 salt (0.2), and Na2-ATP (4), adjusted to pH 7.35 with CSOH. Patch electrodes yielded a resistance of 3-5 MA when measured with the internal and external salines described above.
Fura-2 ratio imaging of intracellular free Ca^2+, was accomplished by measuring the background corrected fluorescence ratio at 340 and 380 nm excitation using a cooled CCD camera system, as previously described (Linden et al., J Neurosci 15:5098 1995). Exposure times were 200 msec per single wavelength image. Experiments were conducted at room temperature. Enhanced GFP is weakly excited by illumination in the 380-400 nm spectrum. Based upon the bandpass characteristics of our 340HT15 and 380HT10 excitation filters and the absorption spectrum of enhanced GFP (Clontech), we estimate that <1% of the signal at 340 nm excitation and <5% of the signal at 380 nm excitation is contributed by GFP, even in those cells where the fura/GFP loading ratio is smallest. This could lead to a small (<5%) systemic underestimation of free calcium concentration that should distribute randomly across experimental groups.
Calcium mobilization in the absence of influx was measure by ratio imaging fura-2 in Purkinje cells bathed in Ca^+2-free external saline and stimulated with a micropressure pulse of quisqualate, a metabotropic glutamate receptor agonist (Linden, Neuron 17:483 1996). […] The decay phase of the Ca^+2 response appeared somewhat slower in neurons transfected with the truncated form. […]

[2] = molecular target: binding of mGluR1a or mGluR5 to each of the Homer family members; test: Synthetic peptide block of mGluR1a/mGluR5 binding to Homer family members; settings: synthetic 10 mer peptides, read-out: peptide concentration at which approximately half of the binding was blocked
Description: This exquisite sensitivity of Homer binding to changes in single amino acids within the Homer-ligand site was confirmed in other Homer-interacting proteins including mGluR1a (Tu et al., 1998), Shank (Tu et al., 1999), and I42 (see below). To further confirm that the interaction was mediated by a direct interaction at the Homer-ligand site (as opposed to a secondary allosteric effect on a remote binding site), synthetic 10-mer peptides with either the wild type, or F-to-R mutation were prepared. The wild type peptide blocked binding of mGluR1a or mGluR5 to each of the Homer family members (Tu et al., 1998). Approximately half of the binding was blocked at a peptide concentration of 3.4 micromolar.
Mutations of mGluR5 were initially tested in the context of a 250aa C-terminal fragment, but were also determined to have an identical effect on binding when placed in the full length mGluR5 protein (Tu et al., 1998). This exquisite sensitivity of Homer binding to changes in single amino acid within the Homer-ligand site has been confirmed in other Homer-interacting proteins including mGluR1a (Tu et al., 1998), Shank (Tu et al., 1999) and I42 (see below). […] Approximately half of the binding was blocked at a peptide concentration of 3.4 micromolar.

Row | Molecule | mGluR-evoked Ca^+2 response amplitude [1] [nM] | mGluR-evoked Ca^+2 response latency [1] [s] | also measured
1 | CC(N)(C(=O)O)c1ccc(C(=O)O)cc1 (single isomer, unassigned; (+)) [(+)-MCPG, reference compound] | – | – | block of quisqualate-evoked Ca^+2 transient ([1]; 500 TM in the bath): completely blocked
2 | synthetic 10 mer peptide with the wild type Homer-ligand site; possibly SEQ ID NO:14 ALTPPSPFRD (extended region for peptide binding) [wild type peptide] | – | – | IC50 [2]: ~3.4 µM
3 | C1CCC[C@H]2CCCN3CC[C@@H](CCCCCC[C@@H]4CCCN5CC[C@@H](CC1)O[C@@H]45)O[C@@H]23 [xestospongin C, reference compound] | – | – | block of quisqualate-evoked Ca^+2 transient ([1]; 1 TM in the internal saline): completely blocked
4 | B1 | 170 ± 9 | 10.5 ± 1.8 | –
5 | B2 | 244 ± 17 | 4.2 ± 0.9 | –
